The nature of this data set: soluble on expression in E. coli; label from the status in PepcDB or PDB records.
Regarding “MLTVDQVKELVGEIKDPIIDVPLKETEGIVEVSIKEEKEHVSVKLAMAQLGGAPQLDLQMAVVNALKENGAKTVGIRFETLPEEKVNQFKPKEENKPKTIEGLLSQNNPVEFIAIASGKGGVGKSTVAVNLAVALAREGKKVGLVDADIYGFSVPDMMGIDEKPGIKGKEVIPVERHGVKVISMAFFVEENAPVIWRGPMLGKMLTNFFTEVKWGDIEYLILDLPPGTGDVALDVHTMLPSSKEIIVTTPHPTAAFVAARAGAMAKHTDHSILGVIENMSYFESKETGNKEYVFGKGGGTKLADELNTQLLGELPLEQPSWNPKDFAPSIYQSDDRLGKIYSSIAQKVIAATNKLEHHHHHH”, the “soluble on expression in E. coli” value is given as “soluble”.

“MGSDKIHHHHHHMHHWESLVGEQAIPFFRWRWLAALEDSSSISAKHGWQPLHLALWRDDMPVAVAPLYLKGHSYGEFVFDQAFARLAGDLGLGYYPKLLGMSPVSPVQGYRFYVAPGENEAELTVLMLETIDAFARRNQILSCNFLYVDPHWRPLAEAAGCATWLNQQSLWSADGQSDFSAYLNSFNANQRRNIKRERKAVQQAGLTVSALTGVELDVQLLRCMHGFYEQHCARWGPWGSKYLSEAFFEALADSSLRDQVVLFSAHRVSPREPVAMSLCIQDGQMLWGRYWGSKEEIDCLHFEVCYYAPIAWALENGLENFDPGAGGQHKRRRGFVAKPHASLHRWYEPRMDALIRGWLRKVNPLMLEEIESANADLPFRVEPAPQLIVE”: the “soluble on expression in E. coli” value is given as “not soluble”.

In the case of “MAYKHILIAVDLSPESKVLVEKAVSMARPYNAKISLIHVDVNYSDLYTGLIDVNLGDMQKRISEETHHALTELSTNAGYPITETLSGSGDLGQVLVDAIKKYDMDLVVCGHHQDFWSKLMSSARQLINTVHVDMLIVPLRDEEE”, the “soluble on expression in E. coli” value is on record as “not soluble”.

“MVGRRDGPFKPPGGLLRAFLVRVDAGHLRTVSYSTVLASTSAHSSALPPRRSPPMNAPAKSLLDIDAFPLVQVREMPRELADVERWLEEVEALLAVERDFALVYPPLPQETAEGDQQARKRLVLWLKENRQRFVEHCRGILLSANGQPDNLADLQQLAPVLQAVYGPPVSVAPDLASARGMAKALLSGPATGMNW”: the “soluble on expression in E. coli” value is “not soluble”.

On to “MGSDKIHHHHHHMVQISETSSELIQLLRIENSAPEVLQILDHADSRYIRDLKVNVSNALVTAHISEKESALLALSIAANQKNNILISGFQKLSAEKGATIEEQNEAISCASLLAGNNVFYRFRHFQQKESYNTMQAKIKMNIMMKPVLGKEFFELISLAVSAVNGCEMCVNAHEHSVREMGATEERVWDAIRLAAVITSLDKVMS”, for which the “soluble on expression in E. coli” value was “not soluble”.

In the case of “MTAAATTTVSTAAAMQTAALASLYSQAAVAIINNKGDVGKALKDLGTSDTVKQIVTSALTAGALNQMGADIAQLNSKVRTELFSSTGNQTIANLGGRLATNLSNAGISAGINTAVNGGSLKDNLGNAALGALVNSFQGEAASKIKTTFSDDYVAKQFAHALAGCVSGLVQGKCKDGAIGAAVGEIVAESILGGRNPATLSDAEKHKVISYSKIIAGSVAALNGGDLEHHHHHH”, the “soluble on expression in E. coli” value was “not soluble”.

“MEEARLLVTCPDRPGIVAAVSGFLYAHGANITDLQQHSTDPEGGTFFMRVAFTASHLDLARPALERAFQEVVASRFQMQWRLAYASERKRTAILVSKPAHALLELLWRYRVGELPMELRLVISNHPDHREEVERFGIPYHHVPVEKGRKEEAEERILALLEAEGVELVVLARYMQILSPGFVERFPMRIINIHHSFLPAFAGADPYRQAYERGVKLIGATAHYVTEELDQGPIIEQDVVRVSHRHSVREMKRLGRELERTVLARAVRWHLEDRILVHENRTVVFV”: the “soluble on expression in E. coli” value was “soluble”.

“MYEGKVGFDFLGFTVRQFPVGKYHSGKSSSGKLLGYKTLITPSKAKLKIHAQKIGKLIDEHKAVPQSDLIAHLNPVIRGWTNYYSCVVSKRIFNQADTTLFSQLKAWAEHRHPNKSSRWSCQKYWQTVGSDNWVFKPHNQKIRLLKHRETRIVRHILEHHHHHH”: the “soluble on expression in E. coli” value is “not soluble”.

Turning to “MAHHHHHHMASADSKAVLLSSQPGATAYSSTVAVKVQAGRMILQDGIVRPLLGSGFLFLLREGLLQDTVLTWVSSDGEEQCRVTLPPGRVKVSWVEKCRPSRVLLFDIDNGKQPLFFWMQSRSDELDEPVMHRIQHAIERNRQQAVAQHGRREIKMGTLQNILSDLWSEALAHDVNLVDILGSEKLLKALQEDPGFYTLRLKDYLPLGELDSGVPLDLKKLMNDRQVQWTAEILGTLLRHETTYSQLSASFLNGTMLWGANVTSFIVSIINIFLPQNEQQQMGESDN”, the “soluble on expression in E. coli” value is recorded as “not soluble”.

Regarding “MAHHHHHHMSTYANSQARLNRVAPQLRPAGVHGDWTEATMAELLSSYNPNGIITPDHIRSFHHRGCDVGEQRRHWGLAKDAPVDPNMRHGVKGKETGGADACLRPEMYADKMTALLDAQLESQYLSNRRKPLGHAPVPRDPVPVPFGGFGITQKKGDSTQSVLAGYRSVDVLHPAGEQLTRNYDWEKAGIDPTQHRFGKPSARSDGTTAAALFNDSATQLTSKLAKDYETTVAKELGKSKRYGFDDPAEWDEEKRGSVTKFGATGTAASYFQTEQPTVRELLSSWAQTASGPRADKAASGKAGQQGLTGSADSAVTAKADASAAAPVASGPSLTEPLKDEARAHQLLYPCHYVSLGVESKYFAGGRPLEDIRRLCHKCSFGLSDADIDAVFVLVAKGGSTCSIEEFKNAARARGYM”, the “soluble on expression in E. coli” value is reported as “not soluble”.

In the case of “SENLYFQGSANAVCQRCQARFSPAERIVNSNGELYHEHCFVCAQCFRPFPEGLFYEFEGRKYCEHDFQMLFA”, the “soluble on expression in E. coli” value is on record as “soluble”.

Regarding “MGSDKIHHHHHHLRTNTVKVALVGCGRIAGHHARSIVATDGVQLAAVCDLAEDKALAYSNEFGVPSYTDYRRMLAEHPEISVVAVITPSGMHSEHGLEMMERFGKHIILEKPTMMRPEQLVHAWGVADRLNLSIFPVFQNRHNKAVTRVRQALAAGELGEIRIMSVRVRWCRPQRYYDLAPWRGTFSHDGGALTNQGIHHVDLLRHLGGEVDQVSATMRTLGADIEVEDTVVATMRYRSQAVGVLEVTTAARPDDFEASISIVGEKGLAQIGGIAVNELQVFTPDPAACAANSEDFKSFEGNGAVYGFGHSQMYRDIAAHFHQGKAYPVSREDCLGTLKLLHAFYRSDEAAGGWVDVDSPEQSTRLGRPDDAISNLYRTPLHG”, the “soluble on expression in E. coli” value was “not soluble”.

For “MNFNVIICGVGGQGVVLASRLLAITAMNSGFHVNTAETLGMSQREGSVVSHLQFGENIKSSLIPEGSTDLIIGLEVSEVARNIHFLKKDGKIITNSNLILPSARSSNEKYDSEKIINFIKEKVKSTICIDFSKIAKVAGNPKSMNVSVLSAAFYTGFLPLEYEDFLKTIESEIPEKYRDINLNATKLSAETISNMLEGHNE”, the “soluble on expression in E. coli” value is given as “not soluble”.

As to “GGNLEEMNIDPDNATQTHPKLLLTQICMNAFKRGTDGMYATKKVIQADGESADQYYKWTRGSFGYYDNLRNVQKMGEEAERVNAPVYTALTKFFRAYYFYELTLRFGDIPYSQALKGEKEEIYTPEYDAQEDVFAGILQELREADEILANDASVIDGDIIYNGNSTQWRKLINSFRLKVLMTLSNHTTVGNINIASEFKNIATNSPLMNSLADNGQLVYLDQQGNRYPQFNAQWSGYYMDDTFIQRMRERRDPRLFIFSAQTNKGKTEGKPIDDFSSYEGGDPAAPYSDAIIKVSEGTISPINDRFRTDPIVEPTMLMGYAELQQILAEAVVRGWISGNAQTYYEKGIRASFSFYETHAKDYAGYLNENAVAQYLKEPLVDFTQASGTEEQIERIIMQKYLVTFYQGNWDSFYEQLRTGYPDFRRPAGTEIPKRWMYPQGEYDNNGTNVETAITRQFGAGNDKINQATWWQKKS”, the “soluble on expression in E. coli” value was “soluble”.

Consider “MAHHHHHHMTNKKKMSNSETGGTRCVYVLSDIDGFKYRLVMEGDVRLLTTSKLKRYLQNATGLSAQQQELSFRGRVMQDGECGGDVGLVDGAVLQLRHVKGMRRTNSGDGRRVNRLPSSSMSMGGVAHRGRSSVVDAASCASPTAGLLTPLQGSHPRDGQNGGEAFTSPPPREMNYRSKRMGREAHALEIENARLEERLLEMERRLANASSDWRLQEEIEQLKGIIAQLLREKEAVGRSAEEKWRAKEEELVKELDLMREERRRLHREQTLFEEEQRALVRSLEEQVRSQQQRLLEQGTTITQQTRQRQPAMNVAEKVEKSLKQLSLELNIPQLHLDDNDTCVLPLGDGTNILVTLDTITERLFMYAVIANSLPSNAGKRLELFEMLLEGALLGRDMATGGVGVCLRNELIIMNVCVDIVHADEYALASIARPFMESVQHWSEAVKKMMPEKKN”, for which the “soluble on expression in E. coli” value is “not soluble”.

“MSLIDKTKLLQNFQFHLPTGYHKESLARLNFMKGKPLRDAAVLIGFVDRPEGLQVILTKRAEHLRHHPGQISFPGGKFEPEDIHLVNTALRETNEEVGIEDKHIHVFGQLPKLPTISQFNVTPFLAFISPDYKTHIDPNEVESVFEVPANHILNPNKLYSSKFELKRSSHRVFAIPYRQHFIWGMTAQIIESMQKHIISGEGHHHHHH”: the “soluble on expression in E. coli” value was “soluble”.

As to “MEYPRVMIRFAVIGTNWITRQFVEAAHESGKYKLTAVYSRSLEQAQHFANDFSVEHLFTSLEAMAESDAIDAVYIASPNSLHFSQTQLFLSHKIHVICEKPLASNLAEVDAAIACARENQVVLFEAFKTACLPNFHLLRQALPKAGKLRKVFFNYCQYSSRYQRYLDGENPNTFNPAFSNGSIMDIGFYCLASAVALFGEPKSVQATASLLASGVDAHGVVVMDYGDFSVTLQHSKVSDSVLGSEIQGEAGSLVIEKLSECQKVCFVPRGSQMQDLTQPQHINTMLYEAELFATLVDEHLVDHPGLAVSRITAKLLTEIRRQTGVIFPADSVKLYLPK”, the “soluble on expression in E. coli” value was “not soluble”.

As to “MAFGVLALVHTACENAKYDVIDNLVYINEASTSKTKELTLTEGTTRTSLTVRLVNIINQTIKANLFIDESVLDAYNKKNETNYKMPPKEYISFPESVTIEAGSVSADPVNVDIKSFEAEGGAQYAIPISIKNVEGGIEKSESSSSFLLVLVKPLKQAVPKLTWYNGMHAAPEGAWGLALPNYTLEWWSKVTSKSGNGGYTKNNQAIINSGGLGTELYIRFGDLIYSENGSYKNNFLQVKTMGSQFDTGDPTKGKGLEAQKWYHFAVSYDAASGTTLLYQNGTVVASLSSSIGQPMNIDQFQMISSGEEYFPDFCEMCQVRFWKVTRTVNQIKKSMYTEVDYTDKNLLLYLPMNEGEGATILHDVTGNGHDVEIGNSNLGNENRQKVTWETYSFAQ”, the “soluble on expression in E. coli” value was “not soluble”.

As to “MATEQHLRQQLAAAYRLAALFGWEDTLYTHFSVRLPGDGEPRFLINPFGMMFDEVTASNLIVVDMQGKVVAGDAPANSAGFTIHSAVHMAREDAHCVIHTHTLPGMAVAACEDGLLQLNQISTEFYQRVGYHPYEGVAFDLDERARIQRSLGNNIAMILQSHGLLSVGRTVADAFYIMYYLNRACEIQMATAQLAALSPIHTIAPHLSQHACEQLMGVEHERQQVWQAWLRRLDRLDTSYKD”, the “soluble on expression in E. coli” value was “not soluble”.

As for “MGHHHHHHSHMYAEERRRQIASLTAVEGRVNVTELAGRFDVTAETIRRDLAVLDREGIVHRVHGGAVATQSFQTTELSLDTRFRSASSAKYSIAKAAMQFLPAEHGGLFLDAGTTVTALADLISEHPSSKQWSIVTNCLPIALNLANAGLDDVQLLGGSVRAITQAVVGDTALRTLALMRADVVFIGTNALTLDHGLSTADSQEAAMKSAMITNAHKVVVLCDSTKMGTDYLVSFGAISDIDVVVTDAGAPASFVEQLRERDVEVVIAE”, the “soluble on expression in E. coli” value is “soluble”.

Take “GVTYLLAKRKILYFEAVESKIFVYTEKDVYETTWKLYELEEKFKDSSFFRCSKSMILNIEWIEKIAPGFHGKFEASLFNREKVIISRQYAKILKQKLNLGGKGK”: the “soluble on expression in E. coli” value is reported as “not soluble”.

These data come from the DeepSol protein solubility set.
